What all share (assay): SPOT array
In experiment [1] the target is T1, Rvs167 SH3 (RV167_YEAST), P39743.
T1 chain: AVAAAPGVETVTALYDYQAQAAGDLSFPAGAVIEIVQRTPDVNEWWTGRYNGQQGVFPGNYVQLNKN

In experiment [2] the target is T2, Boi1 SH3 (BOI1_YEAST), P38041.
T2 chain: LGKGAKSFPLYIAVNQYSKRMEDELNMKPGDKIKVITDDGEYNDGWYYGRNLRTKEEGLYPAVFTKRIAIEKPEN

Experiment [3] deals with T3, Yfr024 SH3 (LSB3_YEAST), P43603.
T3 chain: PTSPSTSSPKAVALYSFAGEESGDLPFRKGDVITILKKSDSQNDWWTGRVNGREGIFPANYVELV

For experiment [4], the target named is Sho1 SH3 (SHO1_YEAST), P40073.
Experiment [5] deals with T4, Yhr016c SH3 (YSC84_YEAST), P32793.
T4 chain: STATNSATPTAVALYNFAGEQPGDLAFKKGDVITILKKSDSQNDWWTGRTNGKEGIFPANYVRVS

Experiment [6] has as its target T5, Myo5 SH3 (MYO5_YEAST), Q04439.
T5 chain: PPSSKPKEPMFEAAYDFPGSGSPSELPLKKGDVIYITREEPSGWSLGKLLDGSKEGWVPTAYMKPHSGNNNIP

In experiment [7] the target is T6, Boi2 SH3 (BOI2_YEAST), P39969.
T6 chain: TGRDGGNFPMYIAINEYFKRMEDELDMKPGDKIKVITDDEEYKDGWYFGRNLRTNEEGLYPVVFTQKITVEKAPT

Sequence of Sho1 SH3 (SHO1_YEAST), P40073 (P40073 295-366): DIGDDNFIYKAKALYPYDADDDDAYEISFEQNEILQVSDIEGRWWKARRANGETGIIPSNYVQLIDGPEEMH

B1: YKR067W 8-21 (peptide)
chain: HNAAKPIPHVPQAS
On to B1, for which the normalised SPOT signal, Boehringer light units (BLU); mean over the file's lines of this peptide in experiment [1] is 20.6; in experiment [2], 114; in experiment [3] it was 8.5; in experiment [4] it was 82.1; in experiment [5], 59.3; in experiment [6], 62.3. Further, the normalised SPOT signal, Boehringer light units (BLU); mean over the file's lines of this peptide in experiment [7] was 1.8.

B2: YKR051W 375-388 (peptide)
chain: IAGQRTFPEDPNYP
Turning to B2, the normalised SPOT signal, Boehringer light units (BLU); mean over the file's lines of this peptide in experiment [1] came to 28.7; in experiment [2], 45.1; in experiment [3], 89.6; in experiment [4] it was 43.4; in experiment [5], 16; in experiment [6] it was 172. In experiment [7], this molecule displayed a normalised SPOT signal, Boehringer light units (BLU); mean over the file's lines of this peptide of 0.

B3: YPR056W 317-330 (peptide)
chain: IAKLKRKPVVPRLK
Turning to B3, the normalised SPOT signal, Boehringer light units (BLU); mean over the file's lines of this peptide in experiment [1] was 29.5; in experiment [2], 136; in experiment [3], 489; in experiment [4], 57.1; in experiment [5] it was 87.4; in experiment [6], 888. The normalised SPOT signal, Boehringer light units (BLU); mean over the file's lines of this peptide in experiment [7] was determined as 39.8.

B4: YNL287W 476-489 (peptide)
chain: HLLGKEGPSAPNPS
With B4, the normalised SPOT signal, Boehringer light units (BLU); mean over the file's lines of this peptide in experiment [1] is 49.5; in experiment [2], 89; in experiment [3], 14.5; in experiment [4] it was 69.5; in experiment [5] it was 39.7; in experiment [6] it was 124. The same molecule had a normalised SPOT signal, Boehringer light units (BLU); mean over the file's lines of this peptide in experiment [7] of 22.1.

B5: YAL048C 356-369 (peptide)
chain: HRLFKSTPGLPKLW
B5: the normalised SPOT signal, Boehringer light units (BLU); mean over the file's lines of this peptide in experiment [1] is 605; in experiment [2], 226; in experiment [3], 2840; in experiment [4], 642; in experiment [5], 96.9; in experiment [6] it was 266. The molecule further showed a normalised SPOT signal, Boehringer light units (BLU); mean over the file's lines of this peptide in experiment [7] of 123.

B6: YGR010W 26-39 (peptide)
chain: HTIPKSGPIVPYVL
Consider B6, for which the normalised SPOT signal, Boehringer light units (BLU); mean over the file's lines of this peptide is 28.2 in experiment [1]; 58.4 in experiment [2]; 47.8 in experiment [3]; 42.1 in experiment [4]; 18.7 in experiment [5]; 164 in experiment [6]. For the same molecule, the normalised SPOT signal, Boehringer light units (BLU); mean over the file's lines of this peptide in experiment [7] was 33.2.

B7: YOR322C 264-277 (peptide)
chain: IAVTRSIPRGPDKN
Take B7: the normalised SPOT signal, Boehringer light units (BLU); mean over the file's lines of this peptide in experiment [1] came to 283; in experiment [2], 256; in experiment [3], 555; in experiment [4] it was 65; in experiment [5], 43.3; in experiment [6], 158. The normalised SPOT signal, Boehringer light units (BLU); mean over the file's lines of this peptide in experiment [7] was determined as 34.5.

B8: YPL148C 31-44 (peptide)
chain: HILEKYSPFDPSGR
For the molecule B8, the normalised SPOT signal, Boehringer light units (BLU); mean over the file's lines of this peptide is 15.9 in experiment [1]; 26.1 in experiment [2]; 82.7 in experiment [3]; 89.5 in experiment [4]; 34.1 in experiment [5]; 166 in experiment [6]. For the same molecule, the normalised SPOT signal, Boehringer light units (BLU); mean over the file's lines of this peptide in experiment [7] was 19.3.

B9: YDR266C 250-263 (peptide)
chain: HISDKMNPASPQYF
B9: the normalised SPOT signal, Boehringer light units (BLU); mean over the file's lines of this peptide in experiment [1] is 30.3; in experiment [2] it was 113; in experiment [3] it was 161; in experiment [4], 115; in experiment [5], 27.4; in experiment [6], 159. In experiment [7], this molecule had a normalised SPOT signal, Boehringer light units (BLU); mean over the file's lines of this peptide of 18.2.

B10: YMR277W 194-207 (peptide)
chain: IAEWKNDPNNPNFE
B10: the normalised SPOT signal, Boehringer light units (BLU); mean over the file's lines of this peptide in experiment [1] came to 20.5; in experiment [2], 69.4; in experiment [3], 0; in experiment [4] it was 25.5; in experiment [5] it was 9.5; in experiment [6], 91.1. In experiment [7], this molecule gave a normalised SPOT signal, Boehringer light units (BLU); mean over the file's lines of this peptide of 28.7.

B11: YOR335C 27-40 (peptide)
chain: HKFVKSSPVVPFDD
In the case of B11, the normalised SPOT signal, Boehringer light units (BLU); mean over the file's lines of this peptide is 153 in experiment [1]; 247 in experiment [2]; 122 in experiment [3]; 53.1 in experiment [4]; 40.3 in experiment [5]; 151 in experiment [6]. Also, the normalised SPOT signal, Boehringer light units (BLU); mean over the file's lines of this peptide in experiment [7] came out at 7.2.

B12: YNL106C 1030-1043 (peptide)
chain: HSTPKPLPPVPALS
Take B12: the normalised SPOT signal, Boehringer light units (BLU); mean over the file's lines of this peptide came out at 94.4 in experiment [1]; 1.1 in experiment [2]; 470 in experiment [3]; 21600 in experiment [4]; 29.9 in experiment [5]; 144 in experiment [6]. The normalised SPOT signal, Boehringer light units (BLU); mean over the file's lines of this peptide in experiment [7] came out at 28.4.

B13: YOR070C 339-352 (peptide)
chain: IDIPRTNPHIPLYQ
In the case of B13, the normalised SPOT signal, Boehringer light units (BLU); mean over the file's lines of this peptide in experiment [1] worked out at 9.1; in experiment [2] it was 50.1; in experiment [3], 34.3; in experiment [4] it was 40.3; in experiment [5] it was 0; in experiment [6], 139. In experiment [7], this molecule displayed a normalised SPOT signal, Boehringer light units (BLU); mean over the file's lines of this peptide of 3.3.

B14: YHR070W 477-490 (peptide)
chain: HLVRKVAPTKPMYS
Turning to B14, the normalised SPOT signal, Boehringer light units (BLU); mean over the file's lines of this peptide in experiment [1] came out at 252; in experiment [2], 283; in experiment [3], 947; in experiment [4], 121; in experiment [5], 70.2; in experiment [6], 478. The same molecule displayed a normalised SPOT signal, Boehringer light units (BLU); mean over the file's lines of this peptide in experiment [7] of 69.3.

Source of the values: publication PMC314469, “Protein Interaction Networks by Proteome Peptide Scanning” (PLoS Biology, 2004).
